Measured values taken from US9266930.
Where two headings read alike, the source gives them in different places.

Experiments:
HLA-A*0206 (human) = assay: competition with 125I probe peptide for purified HLA, gel filtration
HLA-A*0201 (human) [1] = assay: as above
HLA-A*0203 (human) = assay: as above
HLA-A*0201 (human) [2] = molecular target: HLA-A*0201 (human)
[3] = molecular target: T1, HLA-DR7 (DRB1*0701) (human)
T1 chain 1: not shown
T1 chain 2: not shown

[4] = molecular target: T2, HLA-DR9 (DRB1*0901) (human)
T2 chain 1: not shown
T2 chain 2: not shown

[5] = molecular target: T3, HLA-DR6w19 (DRB1*1302) (human)
T3 chain 1: not shown
T3 chain 2: not shown

[6] = molecular target: T4, HLA-DR8w2 (DRB1*0802) (human)
T4 chain 1: not shown
T4 chain 2: not shown

[7] = molecular target: T5, HLA-DR5w12 (DRB1*1201) (human)
T5 chain 1: not shown
T5 chain 2: not shown

HLA-A*1101 (human) [8] = molecular target: HLA-A*1101 (human)
[9] = molecular target: HLA-DR3 (DRB1*0301) (human)
[10] = molecular target: HLA-DR5w11 (DRB1*1101) (human)
[11] = molecular target: HLA-DR1 (DRB1*0101) (human)
[12] = molecular target: HLA-DR4w15 (DRB1*0405) (human)
[13] = molecular target: HLA-DR4w4 (DRB1*0401) (human)
[14] = molecular target: HLA-DR2w2β1 (DRB1*1501) (human)
HLA-A*0201 (Human) [15] = molecular target: HLA-A*0201 (Human)
[16] = molecular target: T6, HLA-DR4w4 (DRB1*0401) (human); assay: inhibition of 125I-probe peptide binding to purified HLA-DR, gel filtration
T6 chain 1: not shown
T6 chain 2: not shown

[17] = molecular target: T7, HLA-DR4w15 (DRB1*0405) (human); assay: as above
T7 chain 1: not shown
T7 chain 2: not shown

[18] = molecular target: T8, HLA-DR5w11 (DRB1*1101) (human); assay: as above
T8 chain 1: not shown
T8 chain 2: not shown

[19] = molecular target: T9, HLA-DR2w2β2 (DRB5*0101) (human); assay: as above
T9 chain 1: not shown
T9 chain 2: not shown

[20] = molecular target: T10, HLA-DR1 (DRB1*0101) (human); assay: as above
T10 chain 1: not shown
T10 chain 2: not shown

HLA-A*1101 (human) [21] = assay: competition with 125I-labeled probe peptide for purified HLA, gel filtration; details: scale: ratio
HLA-A*0301 (human) [22] = assay: as above; details: scale: ratio
[23] = molecular target: HLA-DR2w2β2 (DRB5*0101) (human)
[24] = molecular target: HLA-DR3 (DRB1*0301) (human); assay: competition with 125I-labeled probe peptide on purified HLA-DR, gel filtration
[25] = molecular target: HLA-A*1101 (purified HLA class I molecule) (human)
[26] = molecular target: T7, HLA-DR4w15 (DRB1*0405) (human)
[27] = molecular target: T8, HLA-DR5w11 (DRB1*1101) (human)
[28] = molecular target: T9, HLA-DR2w2β2 (DRB5*0101) (human)
[29] = molecular target: T11, HLA-DR2w2β1 (DRB1*1501) (human)
T11 chain 1: not shown
T11 chain 2: not shown

[30] = molecular target: T10, HLA-DR1 (DRB1*0101) (human)
HLA-A*1101 (human) [31] = assay: competition with 125I-labelled standard peptide for purified HLA, gel filtration
HLA-A*0301 (human) [32] = assay: as above
HLA-A*3301 (human) = assay: as above
HLA-A*6801 (human) = assay: as above
HLA-A*1101 (human) [33] = molecular target: HLA-A*1101 (human); remark: listed apart in the source
[34] = molecular target: T5, HLA-DR5w12 (DRB1*1201) (human)

FMKAVCVEV (modifications not checked) [1167.16] showed an IC50 (HLA-A*0206 (human)) of 389 nM, an IC50 (HLA-A*0201 (human) [1]) of 63 nM and an IC50 (HLA-A*0203 (human)) of 2.9 nM.

For SVFNVVNSSI (modifications not checked) [… (P. falciparum CSP, position 415, 10 amino acids)], the binding affinity ratio (IC50 of standard peptide / IC50 of test peptide) (HLA-A*0201 (human) [2]) was 0.0005.

Work on VFFLALFFIIFNKES (modifications not checked) [… (Pf EXP 6)] yielded a binding affinity ratio (IC50 of standard peptide / IC50 of test peptide) [3] of 0.0056, a binding affinity ratio (IC50 of standard peptide / IC50 of test peptide) [4] of -0.0018 and a binding affinity ratio (IC50 of standard peptide / IC50 of test peptide) [5] of -0.0002. For the same binder, the binding affinity ratio (IC50 of standard peptide / IC50 of test peptide) [6] was -0.0007 and the binding affinity ratio (IC50 of standard peptide / IC50 of test peptide) [7] was 0.0002.

For GTGSGVSSKK (modifications not checked) [… (P. falciparum EXP-1, position 28)], the binding affinity ratio (IC50 of standard peptide / IC50 of test peptide) (HLA-A*1101 (human) [8]) was 0.034.

IGPFMKAVCVEVEKT (modifications not checked) showed a binding affinity ratio (IC50 of standard peptide / IC50 of test peptide) [9] of -0.0008, a binding affinity ratio (IC50 of standard peptide / IC50 of test peptide) [10] of -0.0004 and a binding affinity ratio (IC50 of standard peptide / IC50 of test peptide) [11] of 0.0072. It also gave a binding affinity ratio (IC50 of standard peptide / IC50 of test peptide) [12] of 0.0086, a binding affinity ratio (IC50 of standard peptide / IC50 of test peptide) [13] of -0.0006 and a binding affinity ratio (IC50 of standard peptide / IC50 of test peptide) [14] of 0.0003.

In the case of KLATSVLAGL (modifications not checked) [… (EXP position 75, 10 amino acids)], the binding affinity ratio (IC50 of standard peptide / IC50 of test peptide) (HLA-A*0201 (Human) [15]) is reported as 0.0047.

EALFQEYQCYGSSSN (modifications not checked) gave a binding affinity ratio (relative binding) (ratio to standard peptide) [16] of 0.0053, a binding affinity ratio (relative binding) (ratio to standard peptide) [17] of -0.0009 and a binding affinity ratio (relative binding) (ratio to standard peptide) [18] of -0.0002. It also gave a binding affinity ratio (relative binding) (ratio to standard peptide) [19] of -0.0005 and a binding affinity ratio (relative binding) (ratio to standard peptide) [20] of 0.0001.

Binder GVSSKKKNKK (modifications not checked) [… (P. falciparum EXP, position 32, 10 amino acids)] has a binding affinity ratio (relative to standard peptide) (HLA-A*1101 (human) [21]) of 0.0002 and a binding affinity ratio (relative to standard peptide) (HLA-A*0301 (human) [22]) of 0.0011.

In the case of GVSSKKKNK (modifications not checked) [… (P. falciparum EXP, position 32, 9 amino acids)], the binding affinity ratio (relative to standard peptide) (HLA-A*1101 (human) [21]) is reported as 0.0002 and the binding affinity ratio (relative to standard peptide) (HLA-A*0301 (human) [22]) is reported as 0.0001.

In the case of ANQLVVILTDGIPDS (modifications not checked), the binding affinity ratio (IC50 of standard peptide / IC50 of test peptide) [10] is reported as -0.0002, the binding affinity ratio (IC50 of standard peptide / IC50 of test peptide) [23] is reported as -0.0005 and the binding affinity ratio (IC50 of standard peptide / IC50 of test peptide) [14] is reported as 0.0008.

In the case of VEALFQEYQCYGSSS (modifications not checked), the binding affinity ratio (IC50 standard peptide / IC50 test peptide) [24] is reported as 0.0082.

SDASKNKEK (modifications not checked) [… (Pf SSP2 105, 9-mer)] showed a binding affinity ratio (IC50 of standard peptide / IC50 of test peptide) [25] of 0.0002.

VSTVLLGGVGLVLYN (modifications not checked) showed a binding affinity ratio (IC50 of standard peptide / IC50 of test peptide) [9] of -0.0008, a binding affinity ratio (IC50 of standard peptide / IC50 of test peptide) [10] of 0.0003 and a binding affinity ratio (IC50 of standard peptide / IC50 of test peptide) [12] of -0.0009. It also gave a binding affinity ratio (IC50 of standard peptide / IC50 of test peptide) [23] of 0.0005 and a binding affinity ratio (IC50 of standard peptide / IC50 of test peptide) [14] of 0.008.

TVLLGGVGLVLYNTE (modifications not checked) [… (Pf EXP 90)] showed a binding affinity ratio (IC50 of standard peptide / IC50 of test peptide) [3] of 0.0007, a binding affinity ratio (IC50 of standard peptide / IC50 of test peptide) [6] of -0.0002 and a binding affinity ratio (IC50 of standard peptide / IC50 of test peptide) [7] of 0.0004.

Binder GLIMVLSFL (modifications not checked) [1167.08] has an IC50 (HLA-A*0201 (human) [1]) of 22 nM.

With NSSIGLIMVLSFLFL (modifications not checked) the binding affinity ratio (relative binding) (ratio to standard peptide) [26] was 0.0035, the binding affinity ratio (relative binding) (ratio to standard peptide) [27] was -0.0005 and the binding affinity ratio (relative binding) (ratio to standard peptide) [28] was 0.0024. The binding affinity ratio (relative binding) (ratio to standard peptide) [29] was 0.025 and the binding affinity ratio (relative binding) (ratio to standard peptide) [30] was 0.004.

Work on NMPNDPNRNV (modifications not checked) [… (P. falciparum CSP, position 323, 10 amino acids)] yielded a binding affinity ratio (IC50 of standard peptide / IC50 of test peptide) (HLA-A*0201 (human) [2]) of 0.0007.

ILSVFFLAL (modifications not checked) [… (EXP position 3, 9 amino acids)] showed a binding affinity ratio (IC50 of standard peptide / IC50 of test peptide) (HLA-A*0201 (Human) [15]) of 0.0058.

For ILSVFFLALFFIIFN (modifications not checked) [… (Pf EXP 3)], the binding affinity ratio (IC50 of standard peptide / IC50 of test peptide) [3] was 0.011, the binding affinity ratio (IC50 of standard peptide / IC50 of test peptide) [4] was -0.0003 and the binding affinity ratio (IC50 of standard peptide / IC50 of test peptide) [5] was 0.0005. It also gave a binding affinity ratio (IC50 of standard peptide / IC50 of test peptide) [6] of 0.0031 and a binding affinity ratio (IC50 of standard peptide / IC50 of test peptide) [7] of 0.0008.

Work on PSPNPEEGK (modifications not checked) yielded a binding affinity ratio (IC50 of standard peptide / IC50 of test peptide) (HLA-A*1101 (human) [31]) of 0.0002, a binding affinity ratio (IC50 of standard peptide / IC50 of test peptide) (HLA-A*0301 (human) [32]) of 0.0005 and a binding affinity ratio (IC50 of standard peptide / IC50 of test peptide) (HLA-A*3301 (human)) of 0.001. The binding affinity ratio (IC50 of standard peptide / IC50 of test peptide) (HLA-A*6801 (human)) was 0.0002.

SVTCGKGTR (modifications not checked) [… (Pf SSP2 254, 9-mer)] was tested, and the binding affinity ratio (IC50 of standard peptide / IC50 of test peptide) [25] was 0.0009.

For KILSVFFLA (modifications not checked) [1167.13], the IC50 (HLA-A*0206 (human)) was 8 nM.

In the case of VTCGNGIQV (modifications not checked) [… (P. falciparum CSP, position 375, 9 amino acids)], the binding affinity ratio (IC50 of standard peptide / IC50 of test peptide) (HLA-A*0201 (human) [2]) is reported as 0.0011.

VSTVLLGGVGLVLYN (modifications not checked) [… (Pf EXP 88)] showed a binding affinity ratio (IC50 of standard peptide / IC50 of test peptide) [3] of 0.002, a binding affinity ratio (IC50 of standard peptide / IC50 of test peptide) [4] of 0.012 and a binding affinity ratio (IC50 of standard peptide / IC50 of test peptide) [5] of 0.0002. For the same binder, the binding affinity ratio (IC50 of standard peptide / IC50 of test peptide) [6] was -0.0002 and the binding affinity ratio (IC50 of standard peptide / IC50 of test peptide) [7] was 0.0011.

For NLPNDKSDR (modifications not checked) [… (Pf SSP2 406)], the binding affinity ratio (IC50 of standard peptide / IC50 of test peptide) (HLA-A*1101 (human) [33]) was 0.0002.

EALFQEYQCYGSSSN (modifications not checked) [… (Pf CSP DR-supermotif 15-mer, core …)] was tested, and the binding affinity ratio (relative to standard peptide) [34] was 0.0001.

FIIFNKESLAEKTNK (modifications not checked) was tested, and the binding affinity ratio (IC50 standard peptide / IC50 test peptide) [24] was 0.004.

For TCGKGTRSRK (modifications not checked) [… (Pf SSP2 256, 10-mer)], the binding affinity ratio (IC50 of standard peptide / IC50 of test peptide) [25] was 0.0002.

Work on ADSAWENVK (modifications not checked) [… (Pf SSP2 position 216)] yielded a binding affinity ratio (IC50 of standard peptide / IC50 of test peptide) (HLA-A*1101 (human) [33]) of 0.0009.

In the case of QVRKHLNDR (modifications not checked), the binding affinity ratio (IC50 of standard peptide / IC50 of test peptide) (HLA-A*1101 (human) [31]) is reported as 0.0002, the binding affinity ratio (IC50 of standard peptide / IC50 of test peptide) (HLA-A*0301 (human) [32]) is reported as 0.0005 and the binding affinity ratio (IC50 of standard peptide / IC50 of test peptide) (HLA-A*6801 (human)) is reported as 0.0002.

Work on LALFFIIFNK (modifications not checked) [Pf EXP peptide … (position 9)] yielded a binding affinity ratio (relative to standard peptide) (HLA-A*1101 (human) [33]) of 0.053.
